Experimental data published in patent US20140255407A1 (MacroGenics, published 2014).
One block for each binder: values may come before it.

Tests used:
Canine B7-H3 = target: T1, Canine B7-H3; assay: SPR
T1 chain: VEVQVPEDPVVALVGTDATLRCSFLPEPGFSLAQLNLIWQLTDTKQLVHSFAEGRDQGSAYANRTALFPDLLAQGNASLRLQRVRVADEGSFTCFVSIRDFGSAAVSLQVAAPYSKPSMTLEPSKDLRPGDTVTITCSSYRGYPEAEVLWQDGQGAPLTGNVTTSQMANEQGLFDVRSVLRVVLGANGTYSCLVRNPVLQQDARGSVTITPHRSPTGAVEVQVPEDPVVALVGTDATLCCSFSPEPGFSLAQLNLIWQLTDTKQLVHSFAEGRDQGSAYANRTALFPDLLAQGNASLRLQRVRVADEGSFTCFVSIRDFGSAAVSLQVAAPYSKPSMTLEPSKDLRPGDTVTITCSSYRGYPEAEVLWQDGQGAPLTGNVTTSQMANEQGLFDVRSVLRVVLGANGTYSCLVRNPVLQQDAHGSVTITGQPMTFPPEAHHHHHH

Human B7-H3 = target: T2, Human B7-H3 (human, UniProt Q5ZPR3 29-466); assay: SPR
T2 chain: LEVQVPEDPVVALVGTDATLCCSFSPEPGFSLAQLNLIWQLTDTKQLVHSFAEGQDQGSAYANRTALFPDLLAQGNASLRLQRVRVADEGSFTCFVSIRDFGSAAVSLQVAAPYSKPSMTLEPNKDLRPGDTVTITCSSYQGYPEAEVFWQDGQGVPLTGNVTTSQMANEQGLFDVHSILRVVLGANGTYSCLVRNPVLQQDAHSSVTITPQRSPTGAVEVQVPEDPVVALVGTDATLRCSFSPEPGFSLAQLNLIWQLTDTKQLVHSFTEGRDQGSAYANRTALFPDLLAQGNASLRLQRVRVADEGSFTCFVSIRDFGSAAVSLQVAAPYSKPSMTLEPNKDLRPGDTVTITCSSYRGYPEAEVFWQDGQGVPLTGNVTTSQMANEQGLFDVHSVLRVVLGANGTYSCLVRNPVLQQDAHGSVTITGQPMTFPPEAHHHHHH

[1] = target: T3, soluble human B7-H3 with 6xHis tag at the carboxy terminus (human, UniProt Q5ZPR3 29-466); assay: ELISA and SPR on soluble human B7-H3-His
T3 construct: extracellular domain; also called hB7-H3; human B7H3(4Ig)-His
T3 sequence: T2 chain
Description: Antibodies hBRCA84D and hBRCA69D were tested in an ELISA for binding to canine B7-H3. Briefly, soluble human B7-H3 and canine B7-H3 were expressed in CHO cells. Each soluble molecule was engineered to express a 6×His tag at the carboxy terminus to aid in purification of the expressed protein. The molecules were purified by nickel column chromatography using standard techniques. ELISA plates were coated with the soluble B7-H3 and allowed to dry. The plates were washed and blocked using standard ELISA techniques. The wells were probed with either hBRCA84D, hBRCA69D or a control hIgG. Secondary detection reagent was added and binding was determined As shown in FIG. 1A (hBRCA84D) and FIG. 1B (hBRCA69D), the antibodies were able to bind to soluble canine B7-H3 (cB7-H3). To determine binding affinity of the hBRCA84D and hBRCA69D antibodies to soluble canine B7-H3, SPR analysis was conducted. As shown in FIGS. 1C and 1D (hBRCA84D) and FIGS. 1E and 1F (BRCA69D) the binding affinities are similar to the binding of the antibodies to soluble human B7-H3 (shown in FIG. 1A and FIG. 1B, respectively).

[2] = target: T4, soluble human B7-H3 with 6xHis tag at the carboxy terminus (human, UniProt Q5ZPR3 29-466); assay: SPR
T4 chain: T2 chain

[3] = target: T5, soluble canine B7-H3 with 6xHis tag at the carboxy terminus; assay: SPR
T5 chain: T1 chain

- Kd (Canine B7-H3): 39 nM
- Kd (Human B7-H3): 45 nM
B1: hBRCA84D (antibody, V domains shown)
VH: EVQLVESGGGLVQPGGSLRLSCAASGFTFSSFGMHWVRQAPGKGLEWVAYISSDSSAIYYADTVKGRFTISRDNAKNSLYLQMNSLRDEDTAVYYCGRGRENIYYGSRLDYWGQGTTVTVSS
VL: DIQLTQSPSFLSASVGDRVTITCKASQNVDTNVAWYQQKPGKAPKALIYSASYRYSGVPSRFSGSGSGTDFTLTISSLQPEDFATYYCQQYNNYPFTFGQGTKLEIKR

- binding result [1]: binds
- Kd [2]: 8.8 nM
- Kd [3]: 8.4 nM
B2: hBRCA69D (humanized antibody BRCA69D) (antibody, V domains shown)
VH: QVQLVQSGAEVKKPGASVKVSCKASGYTFTSYWMQWVRQAPGQGLEWMGTIYPGDGDTRYTQKFKGRVTITADKSTSTAYMELSSLRSEDTAVYYCARRGIPRLWYFDVWGQGTTVTVSS
VL: DIQMTQSPSSLSASVGDRVTITCRASQDISNYLNWYQQKPGKAPKLLIYYTSRLHSGVPSRFSGSGSGTDFTLTISSLQPEDIATYYCQQGNTLPPTFGGGTKLEIK
notes: Residue limits are my derivation
